Consider 1 molecule from patent US20260176335A1 (TRUSTEES OF COLUMBIA UNIVERSITY IN THE CITY OF NEW YORK, published 2026).

Assay [1] addresses T1, human serum amyloid A1 (SAA1) (human, UniProt P0DJI8 19-122).
T1 sequence (looked up): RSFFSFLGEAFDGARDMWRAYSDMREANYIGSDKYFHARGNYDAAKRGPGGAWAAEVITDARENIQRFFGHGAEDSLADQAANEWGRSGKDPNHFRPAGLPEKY
Nature of the assay: cell-based or functional assay.

For assay [2], the target named is T1, human serum amyloid A1 (SAA1). Nature of the assay: Kd calculated from competitive binding curves (competitive peptide 0.625-80 nM against SAA1 at 150 ng/ml), NFκB-luciferase reporter cell readout. The method, then:
Raw 264.7-NFκB-Luc cells were seeded at a density of 60,000 cells in 40 μl media/well in a 96-well plate. The plate was placed at 37° C. in a 5% CO₂ incubator overnight to allow cells to adhere. 5 μL of SAA1 antigen solution (150 ng/ml) was added to each well. 10 μL of the competitive antigen standard solution was added to the respective wells. 10 μL of the purified antibody (18A3-S1-F) solution was added to each well.
The plate was incubated at 37° C. in a 5% CO₂ incubator for 2 hours to allow binding between the antibody and antigens. 10 μL of the viability dye (i.e., the Cell Titer Fluor reagent; Promega) was added, and the plate was rocked for 5 minutes and incubated at 37° C. in a 5% CO₂ incubator for 30 minutes. Then […] reading was taken with 7-amino-4-trifluoromethyl-coumarin (AFC) (excitation 405 nm/emission […]). After 3 hours, 1:1 Bright Glo Luciferase reagent (Promega) was added, and the plate was rocked for 5 minutes in dark (covered with foil) before the reading was taken.
The dissociation constant (Kd) was calculated from the competitive binding curves (FIG. 4E). The lower the Kd value, the higher the binding affinity of the antibody.

B1: murine anti-SAA1 18A3 antibody (antibody, V domains shown)
VH: DVQLVESGGGLVQSGGSRKLSCAASGFTFSRFGMHWVRQAPEKGLEWVAYISRGSTKIYYADTVKGRFTISRDNPRNTLFLQMTSLRSEDTAMYYCARSLIYYDYDGFGYWGQGTLVTVSA
VL: DVLMTQTPLSLPLSLGDQASISCRSSQSIVHSNGNTYLEWYLQKPGQSPKLLIYKVSNRFSGVPDRFSGSGSGTDFTLKISRVEAEDLGVYYCFQGSHVPPTFGGGTKLEIK
notes: Murine hybridoma monoclonal antibody; Tested as hybridoma supernatant or as purified antibody from subclone 18A3-S1-F / 18A3-S1; also called 18A3-S1-F; 18A3-S1
With B1, the “EC50 (half-maximal inhibition of SAA1-induced NFκβ activation, reporter assay)” value in assay [1] is 2.55 nM. The Kd in assay [2] was 0.94 to 1.12 nM.
